This is an account of results in a protein production outcome set (Wang et al. 2014).
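Note: failed if final PepcDB status was selected cloned or expressed and not failed if soluble or beyond.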

The data set can be described thus: label from the status in PepcDB records.
As for “MRSTVAEPPVLDKIIKNVRVVRPHNDAVELLDIGIKDGKFAQIAPNITPDTGQEIFDAKNLLGFPGVVDAHMHIGIYQPLDKDAVTESKAAAMGGVTTSLNYIRTGQYYLNKGGSYRDFFPEVLALSAGNFFVDYSYHVAPIASQHIDEIPLLFEEHGVTSFKIFMFYGGYGLHGLSDQQNLFLMINKEERYDFAHFEFIMRGVTRLMAEYPEARDYISLSLHCEVAEILNAYTKIVENDSSLSGLHAYSAARPPHSEGLAISIAAYLAHETNCANINLLHLSSRKAMEAALIMQTAFPHINFRREVTVGHLLLDVDTPNGTWAKVNPPIRPRADVEYLWQAVLNHQVDWIVSDHACCSAEQKRSAKDPNNIWLAKSGFGGTEYLLSGVVSEGSKRGMSYNHMAKLLSWNPSRRFGLLTKGDIAIGYDADLVLVDPNESFVVRAAESESQQGYTPFEGMELTGRVKSTFLRGSLIYHNGQVLGSPNGRYVRRSLGG”, the protein production result is “failed”. “MRSWAIDLEEYLMSKALEGKSPGTVDRYRYELQRLLSYVNKAVRDITEGDISGYMRAYKAIRQVSNQTLKNVRAVYSSFFAWLRDRDRIRRNPMALVEAIKVLEHHHHHH”: the protein production entry is listed as “failed”. Turning to “MRSYAIGDIHGHLSLLQEIHGRIAADRARTGDDEAPVVHIGDLVDRGPDSRGVVEYLRQGIEQGENWVVLKGNHDRMFAGFLRDPAHQDPGLRGDLSWLHPRLGGGPTLESYGVAHAADRPVAIVHREAVALVPAEHVAFIEALPAVYRRDEALFVHAGIRPGVPLAEQIEDDLVWIREPFLSDPRDHGMLVVHGHTAIDAVTHYGNRLNLDSGAAYGGPLSAVVIEGRSVWQLGPEGRRPIALEHHHHHH”, the protein production result is on record as “failed”.

For the sequence “MRTATSTSPATGTPAPVPSRTPDVTVTVIVYNDAGRLPRAVASALRQSHANIEVVISDDHSTDATEEVARELAAHDPRVVYLRLPENSGGCSAPRNRALEIARAPYLMFLDSDDELPERAVEVLLAAHRERDLDFAMGAVHRIREDGGRRTTWMPHLVAERRTLDGIEADPRLLFEHLSTSKMYARAFLDRHGLRFPEGIHYEDQLFSAQAYCLAKTFTVVPEPVYRWYIAPYADADSASISNQRHKLTNVRDRVHVQRLIDAFLAESGHEALREDKDFKFLKHDFRMYAGDLPYRDDTWLASFADLMNPYLDTLAEGAYARLPRAERVVLRLLRDRRLSDVRTAARGLGHDVAPRRVTPDEQSGRVYWGEEVPASPESRRELDLTDLDLDTRPFFTALLRHEITEITRGPGASVDLTVRTYDPALRLPVGPQRAVLHLSPGPRRLTVPFRLSPVRPGLFEGRVRLDLAAARLPLHGFAGTRHPVLRLRHRGRTHTGILLAPLAFPPLTARVPYRTGLTPHRVTLRPEGHNPGRLQITWQPVGTTAKILGPAARRLSTPRTRRAARLLSNILRLEHHHHHH”, the protein production entry is given as “not failed”. Next, “MRTLIILLLCTNTSFAIAQISPKAVEKNNQSVKTAGFFNDSDSLNKAIHLSDEAIALEPSYKLAYANKIKYLMALGQKEKALQTMLQMEKFSPDDPYYILGKGMMLEENAKKSLAMDAYKQAASLFKKRLKEKPTEADLMNYVFVLFLRDNKNYSLDEIEKEYPQIFSPAIRQHTKKLIDELSNKREDVIHEMLGGK”: “failed”; “MRTPLIDRRDFLRAAGIGFAAVMAPSAWAKTLAANAVFATAFVKRDGSFGAAILSEAGKVLHAIDLPDRGHDVTFDPISKRSVVFARQPGTFAVVFDHSGRDAPQTVASISGRHFFGHGVFSPDGALLYATENDFDNAAGVIGIYDARAKFSRVGEFPTYGMGPHELLLLGDGRTMAVANGGIETHPDYGRAELNIATMKPSYVLIDRVTGDLIEKHELPASLHQLSIRHMDTDPSGTVWFGCQYRGPGTDRPLLVGRAVRGKELQLLDMPQDVLSGFRNYIGSVAANLSAGSVAVSSPEGNSLVVIDAASGRVVSSSALVEVCGLAPDGSGFIATTGAGEIIEGSGATRSEPDYVWDNHMLRIERA”: “failed”. Turning to “MRTSNPMLKKEAFRKEGASASAMTIGGTVGKTFIMLILLLATSVYSYIQMMQGTMKMPVLIGALIVAAIIAFASMFFPRISPFGAPIYAAVEGVVLGSISAVYTMKFGDSIVLNAVLLTISILFAMLVLYATRVVKVTDKFRTGVMAATLGIMVMYLVVFLLNMFGVTVPYIHQGGTIGIIISAVVIVVAALNLLLDFDLIENGVRSQAPKYMEWYTAMGLMLTLVWLYLEILRFVSYFTKND”, the protein production entry was “not failed”. Next, “MRTTHSPATAAGRTLGRVLKAVLSLLVLAAAVAGLPLLLAWVTPAIWASSHDDLTHLLDRQDTGAAFLLLLVAVGWIGWAQFAFCAVRELIAQVGGRSWQAPRRLGASQRAAALLVGSILVLLPTSSALASDAHASPATTEARVPGQAPAPQTAEPDQTLPDSASTPASRTSYTVRATRPAQSLWGIAERELGDGERWREIAALNEGRTMVDGQVFRAHGFLQPGWQLEMPDTAAAAGGIRTQLGRAAPTAEGKNEHVVTVHSGDYLSKIAEEELGDGGEWPRLFKASRGKTQPDGLPAISDPDVIYAGQQVTVPGAQPDPHTPPRDGDNGDEAGSQETTPPATQKPDGKQKPGDDRRDEQAPAPGTTTAPAPESSAPSTPASRPAEQPGQEQGSPSATASATPRPGTSPAPSAAAPSATAEAPGSADSSPATTASETPPPAPAPAPASSPLNLRTVLGAGTLLAAAITGALALRRTLQRRRRTPGEKIAIASETSPAEAKLAAAAEPGGAARLDVALRTLAHQVAHEKAADLPPIRAARIGTRTVEVLPEGLARKPQAPFVAGQAGWWVLPAEAVLLDEETAREVPAPYPGLVTIGSTESGDLLLLNLPQVAALLLDGNPVHITEVCTSLALELGMSPWASEAEIVTIGFGEDLPQLLPTSRIAHMRHARHALRDLSERLLEAHQMPETSHQPYLLLCASTLDADLAWQFADIIDKAQHVPVTLIAPASAAAASFPDAEILNASLSKPQQFDYIGSEITVQRLEHAAYLQITTALAISAQPADPAEGPWEEVPHEPDTPQRPRPLDLAKPTQSGDGEKPVPASPFTAGTGDSEIYPALLAASTDPASLKLLPDPKAPGKAPAEPGTEPAEMTPDGRAPQKAAEATGRPQETPAAEAVGEDTQAQDLHAPEIRVLGPVEVTGVATTGHGPSQARLAALLYFRPGRSADVLCADMDPVSPWSTATLNARLQGLRRALGNDPAGNAYVPRRRSGDDPYELSEAVRCDWARFTQLAQRALPQGTAGLPDLEKALGLIRGRPFGTRPLPWAEPYQQEMSTRIIDVAHTVATYRTPTGPHHDLTAARQAIATGLDVDDSAELLYRDWMRIEHAAGNRAGLHTAITRIQDINRKIDCSLENETEQLINDLLGPTGGRARGR”: “failed”.

For the sequence “MRVAIPAEDDRGIKSNVSKHFGRSRYFVFVDIEGEDVKNVEVVEVPFEEHGPGDLPNFIKDHGAKIVLTYGIGRRAIEYFNSLGISVVTGVYGRISDVIKAFIGGKLKIDYDWKEKIEKEH”, the protein production entry is “not failed”.

As for “MRVEIWSDIACPWCYVGKARFEKALAAFPHRDGVEVVHRSFELDPGRAKDDVQPVLTMLTAKYGMSQEQAQAGEDNLGAQAAAEGLAYRTRDRDHGSTFDLHRLLHLAKERGRHEALLDAFYRGNFADERSVFNDDERLVELAVGAGLDAEEVRAVLADPAAYADEVRADEREAAQLGATGVPFFVLDRAYGVSGAQPAEVFTQALTQAWGERTPLKLIDDGGAEACGPDGCAVPGH”, the protein production entry was “not failed”. As to “MRVHASSPDNKLQVFAIAGTKAILLAMNMDDSLLQGFHGFAFRRRVANGQWEWLTGLKVFVDVFPEGGPVIKKGKVGRFPTNEHPIQSFLWSDYRASPGTKYEFEISAMFGPIAKLEAYYAATLAITTEQEDDGKHGIWFNLGAIASQAFAEKFGNKPLSDADYNDPDNEEVAFLSRGLLEACIEFIRETPAGDALRIVAYEFTFKRILLELKAALERGVDVRIVYHATTANEKAIADAKLPENSKGVQILFKRTRPQTPHNKFIVRLKKGKTPVSVWTGSTNFTPSGFLGQTNVGHKVTDGDIAKIYLQLWEGLKADPDDFDATQAAMALTPNPANVVGTGTTLVFSPRPSPKMLDWYGHRAADAVNAVMFTAAFKVDERILSALADTDTSMRFILLEQPPSAEVQAARRANPADLELSYGAILGKTKMLTEERTGRDATGKKVTKIVPIPNFKIEKWFLKEELERQSGDGFVFYVHTKFLLVDPFSDDPLVCTGSANFSGASLTSNDENMLLIRGDTRVADIYLTEYDRVFRHFYSRDVINDIAKKGGPVNVGKLDPTDKWWQPYYDAKLAKSHKRRMFFEDPKKHWIESATQDGNVFAKEKPLKKPQ”, the protein production entry is “failed”. Regarding “MRVKICGITRLEDALLAEALGAFALGFVLAPGSRRRIAPEAARAIGEALGPFVVRVGVFRDQPPEEVLRLMEEARLQVAQLHGEEPPEWAEAVGRFYPVIKAFPLEGPARPEWADYPAQALLLDGKRPGSGEAYPRAWAKPLLATGRRVILAGGIAPENLEEVLALRPYALDLASGVEEAPGVKSAEKLRALFARLASLRMEG”, the protein production entry was “not failed”. “MRVTWEEAGWESVAPFVGRRRLPGWDCTVGLVIGDSAALMIDAGSSLREGALLRAEAQRLLGPGRRVTHLALTHPHFDHVFGAAAFSGVEVFGAVGLDTALAHGREELRADAVRNGLDPRAAEGAADLLVRPRHHVFGEWTLDLGGEVQVLLANVGPGHTAYDLAVLVSSSPEVVFCGDLVEESGEPQAGPDAIPSHWPAALDRLLDLGGQDAVYVPGHGATVDAAFVRTQRDELAARFGIA”: the protein production entry is recorded as “failed”. With “MRVVALVPGGIGDQILFFPTLDDLKRYYPNAQLDVVVEPRSKAAYRVSKSVNDILTFDYKDRNSLADWGNLVGTIRDREYDVVITVGQSWLVGLFLWLTGIPTRIGYQGKGRSFLTKTVPFKPSQYAAAVYHDLLAPIGITTPTPELEHHHHHH”, the protein production result was “failed”. Next, “MRVVVTGATGFVGQQVVKALSDRGDQVVALVRSPGKAAKQFAGVPRVEWLGYTPKAAGDWFSALEGADAVIHLAGEPLANGRWTPQRKQEIYDSRVVGTQQLVQAIAQCQQRPRVLVSTSAIGYYGTSDTETFVETHAAGNDFLAKVCGDWEAAAQGVTELGVRLVILRFGIVLGEQGALAKLLLPFQLYLGGPLGSGQQWFSWIHQQDLVRLILTAVDQVGMQGVYNATAPEPLRMADFCRILAEVMQRPSWLPVPAPVLQLLLGEGADVVLKGQRVLPERTLATGFEFHYPNAKTALTNLLKPRYTEGSRLEHHHHHH”: “not failed”; “MRYCRRIGDGHITANSRRMFMVEPAGRKPDPQRRTPHPSVAPADAPWPAHSPVDPAVRRFRGAARYAIWRRGAEWTAVADGPQWSAALAPRIWALRQRQWPVLAVSAPMLVVAGAVALAGVQGWSPVAWTALLVAEVLLRVWVARQAGPWRTAALQRTGWQLVTRLRAISVADAVTTAQIRAGRPQR”: “failed”; “MRYRNTALFVLLAAVWGSAFVAIKAGVGSPDAPGYFFDAPVLFAAVRYDIAAVLMFAYVAWATDRWRPRGRTEWLAVAVGSAFIIAGYHALLFLGQRGTTSAAAAVIVSLSPVLTTAFARALLADERLSVLGLAGMGVGFLGVVVLSQPTPADIAASRFEALVFAAALCFALGSVLTRRLDTDLPIETMEAWSMAGGALLMHALSLALGETVSGAPPTDALVALGYLAVVASAAGFLVYFDLLGRLGAIEINLVSYVVPVFAALVGVLLLGERVDTPTAAGFLLVFAGFVIIKRRAIRAEIADSYWP”: “failed”. The result for “MRYWKNSRIKMFEQEDEWISKTQMKKQMNDLQDLGMALTKLSNDTLKKIGLDADLYEAVTAYKKITSNGALKRQAQFIGRLMRDTDPAPIEAFLAKLRGDDAAHNAFLQRVEQARVRLLADDGALTQFMSDFPHADAGKLRTLIRNTKKEQEQNKPPKNFRALFQELKTVMENGDAEI” reads “failed”.
